The record followed here is the supplement of paper PMC10567573.

B1: MYBL2 (parent)
chain: VKKSCWTEEEDRIICEAHKVLGNR
B2: SETD8 (parent)
chain: GKQAPRKKAQGKTQQNRKLTDFYP
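Note: lentivirally expressed fusions sorted by FACS into six bins by GFP to DsRed ratio, PSI derived from sequencing read proportions per bin multiplied by bin number.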

Variants of B1 are the subject of the first data set. Description: protein stability index of a GFP-peptide fusion (GPS, HEK-293T) (PSI 1-6); higher = more stable. To be noted: c terminus: a fixed tail appended.
Turning to VKKSCWTEEEDRIICEAGKVLGNR [H18G], the protein stability index is 3.2.
Regarding VKKSCWTEEEDRIICEAIKVLGNR [H18I], the protein stability index turned out to be 2.91.
With VKKSCWTEEEDRIICEALKVLGNR [H18L], the protein stability index turned out to be 2.45.
Still for that read-out and setting: in the case of VKKSCWTEEEDRIICEAFKVLGNR [H18F] it was 2.63; in that of VKKSCWTEEEDRIICEAMKVLGNR [H18M], 2.73; in that of VKKSCWTEEEDRIICEACKVLGNR [H18C], 1.8.
Same read-out and setting: in the case of VKKSCWTEEEDRIICEAQKVLGNR [H18Q] it was 3.35.
On to VKKSCWTEEEDRIICEAPKVLGNR [H18P], for which the protein stability index amounted to 4.
Regarding VKKSCWTEEEDRIICEAVKVLGNR [H18V], the protein stability index turned out to be 2.2.
Take VKKSCWTEEEDRIICEADKVLGNR [H18D]: the protein stability index was 4.01.
Still for that read-out and setting: in the case of VKKSCWTEEEDRIICEAAKVLGNR [H18A] it was 3.47.
The same measure, in the same setting: the figure for VKKSCWTEEEDRIICEASKVLGNR [H18S] is 3.81; for VKKSCWTEEEDRIICEARKVLGNR [H18R] it is 2.69.
On the same count and under the same terms, in the case of VKKSCWTEEEDRIICEAWKVLGNR [H18W] it was 2.18; in that of VKKSCWTEEEDRIICEAEKVLGNR [H18E], 3.83; in that of VKKSCWTEEEDRIICEANKVLGNR [H18N], 3.88.
For the variant VKKSCWTEEEDRIICEATKVLGNR [H18T], the protein stability index was 3.79.
Same read-out and setting: in the case of VKKSCWTEEEDRIICEAKKVLGNR [H18K] it was 3.73; in that of VKKSCWTEEEDRIICEAYKVLGNR [H18Y], 2.56.
As to VKKSCWTEEEDRIICEVHKVLGNR [A17V], the protein stability index was determined as 2.37.
On the same count and under the same terms, in the case of VKKSCWTEEEDRIICEFHKVLGNR [A17F] it was 2.65.
Still for that read-out and setting: in the case of VKKSCWTEEEDRIICEGHKVLGNR [A17G] it was 4.14; in that of VKKSCWTEEEDRIICEDHKVLGNR [A17D], 4.36.
Same read-out and setting: the figure for VKKSCWTEEEDRIICEYHKVLGNR [A17Y] is 2.39.
With VKKSCWTEEEDRIICEKHKVLGNR [A17K], the protein stability index turned out to be 3.68.
On the same count and under the same terms, the figure for VKKSCWTEEEDRIICEEHKVLGNR [A17E] is 3.49.
As for VKKSCWTEEEDRIICETHKVLGNR [A17T], the protein stability index is 2.92.
Take VKKSCWTEEEDRIICENHKVLGNR [A17N]: the protein stability index was found to be 3.88.
On the same count and under the same terms, the figure for VKKSCWTEEEDRIICEMHKVLGNR [A17M] is 3.03.
Same read-out and setting: the figure for VKKSCWTEEEDRIICECHKVLGNR [A17C] is 2.12; for VKKSCWTEEEDRIICERHKVLGNR [A17R] it is 3.51; for VKKSCWTEEEDRIICEWHKVLGNR [A17W] it is 2.55.
On the same count and under the same terms, the figure for VKKSCWTEEEDRIICEPHKVLGNR [A17P] is 3.12; for VKKSCWTEEEDRIICEQHKVLGNR [A17Q] it is 3.83.
Take VKKSCWTEEEDRIICEHHKVLGNR [A17H]: the protein stability index is 3.46.
As for VKKSCWTEEEDRIICEIHKVLGNR [A17I], the protein stability index was 2.09.
Same read-out and setting: in the case of VKKSCWTEEEDRIICELHKVLGNR [A17L] it was 1.59; in that of VKKSCWTEEEDRIICESHKVLGNR [A17S], 3.36; in that of VKKSCWTEEEDRIICEAHKVLWNR [G22W], 2.28.
On the same count and under the same terms, in the case of VKKSCWTEEEDRIICEAHKVLMNR [G22M] it was 2.89; in that of VKKSCWTEEEDRIICEAHKVLANR [G22A], 3.17; in that of VKKSCWTEEEDRIICEAHKVLRNR [G22R], 2.99.
On the same count and under the same terms, in the case of VKKSCWTEEEDRIICEAHKVLLNR [G22L] it was 2.64; in that of VKKSCWTEEEDRIICEAHKVLVNR [G22V], 2.86; in that of VKKSCWTEEEDRIICEAHKVLENR [G22E], 3.96.
As for VKKSCWTEEEDRIICEAHKVLHNR [G22H], the protein stability index worked out at 3.11.
In the case of VKKSCWTEEEDRIICEAHKVLDNR [G22D], the protein stability index stood at 3.38.
Same read-out and setting: the figure for VKKSCWTEEEDRIICEAHKVLPNR [G22P] is 3.54; for VKKSCWTEEEDRIICEAHKVLSNR [G22S] it is 2.7; for VKKSCWTEEEDRIICEAHKVLKNR [G22K] it is 3.11.
Regarding VKKSCWTEEEDRIICEAHKVLNNR [G22N], the protein stability index amounted to 3.32.
VKKSCWTEEEDRIICEAHKVLYNR [G22Y]: the protein stability index was 2.79.
The same measure, in the same setting: in the case of VKKSCWTEEEDRIICEAHKVLTNR [G22T] it was 2.83; in that of VKKSCWTEEEDRIICEAHKVLFNR [G22F], 2.54.
VKKSCWTEEEDRIICEAHKVLQNR [G22Q]: the protein stability index worked out at 1.97.
The same measure, in the same setting: in the case of VKKSCWTEEEDRIICEAHKVLINR [G22I] it was 2.58; in that of VKKSCWTEEEDRIICEAHKVLCNR [G22C], 3.03.
Still for that read-out and setting: the figure for VKKSCWTEEEDRIICTAHKVLGNR [E16T] is 2.72.
Take VKKSCWTEEEDRIICRAHKVLGNR [E16R]: the protein stability index came out at 3.13.
Regarding VKKSCWTEEEDRIICPAHKVLGNR [E16P], the protein stability index was found to be 3.54.
Still for that read-out and setting: in the case of VKKSCWTEEEDRIICWAHKVLGNR [E16W] it was 2.39; in that of VKKSCWTEEEDRIICQAHKVLGNR [E16Q], 3.14; in that of VKKSCWTEEEDRIICSAHKVLGNR [E16S], 3.06.
The same measure, in the same setting: the figure for VKKSCWTEEEDRIICVAHKVLGNR [E16V] is 2.31; for VKKSCWTEEEDRIICYAHKVLGNR [E16Y] it is 2.32.

The variants in another data set derive from B2. Described as above. The following applies: c terminus: a fixed tail appended.
Turning to HKQAPRKKAQGKTQQNRKLTDFYP [G1H], the protein stability index was 3.
MKQAPRKKAQGKTQQNRKLTDFYP [G1M]: the protein stability index turned out to be 2.6.
Same read-out and setting: the figure for FKQAPRKKAQGKTQQNRKLTDFYP [G1F] is 3.39.
In the case of DKQAPRKKAQGKTQQNRKLTDFYP [G1D], the protein stability index amounted to 2.68.
Same read-out and setting: the figure for PKQAPRKKAQGKTQQNRKLTDFYP [G1P] is 4.24.
Regarding VKQAPRKKAQGKTQQNRKLTDFYP [G1V], the protein stability index is 3.12.
For SKQAPRKKAQGKTQQNRKLTDFYP [G1S], the protein stability index stood at 3.17.
Still for that read-out and setting: the figure for EKQAPRKKAQGKTQQNRKLTDFYP [G1E] is 3.79; for QKQAPRKKAQGKTQQNRKLTDFYP [G1Q] it is 3.8; for KKQAPRKKAQGKTQQNRKLTDFYP [G1K] it is 3.75.
As for NKQAPRKKAQGKTQQNRKLTDFYP [G1N], the protein stability index came out at 2.88.
For the variant LKQAPRKKAQGKTQQNRKLTDFYP [G1L], the protein stability index amounted to 2.66.
On to TKQAPRKKAQGKTQQNRKLTDFYP [G1T], for which the protein stability index amounted to 3.2.
On the same count and under the same terms, in the case of YKQAPRKKAQGKTQQNRKLTDFYP [G1Y] it was 3.1; in that of RKQAPRKKAQGKTQQNRKLTDFYP [G1R], 2.94.
Still for that read-out and setting: in the case of IKQAPRKKAQGKTQQNRKLTDFYP [G1I] it was 2.74.
The same measure, in the same setting: in the case of AKQAPRKKAQGKTQQNRKLTDFYP [G1A] it was 3.04.
As to CKQAPRKKAQGKTQQNRKLTDFYP [G1C], the protein stability index stood at 2.98.
Turning to GRQAPRKKAQGKTQQNRKLTDFYP [K2R], the protein stability index was determined as 3.07.
Consider GAQAPRKKAQGKTQQNRKLTDFYP [K2A], for which the protein stability index is 3.09.
Same read-out and setting: the figure for GQQAPRKKAQGKTQQNRKLTDFYP [K2Q] is 3.4.
As to GFQAPRKKAQGKTQQNRKLTDFYP [K2F], the protein stability index is 3.34.
Same read-out and setting: in the case of GTQAPRKKAQGKTQQNRKLTDFYP [K2T] it was 2.46; in that of GNQAPRKKAQGKTQQNRKLTDFYP [K2N], 3.11.
On the same count and under the same terms, in the case of GVQAPRKKAQGKTQQNRKLTDFYP [K2V] it was 3.99; in that of GMQAPRKKAQGKTQQNRKLTDFYP [K2M], 3.05; in that of GCQAPRKKAQGKTQQNRKLTDFYP [K2C], 2.92.
The same measure, in the same setting: in the case of GGQAPRKKAQGKTQQNRKLTDFYP [K2G] it was 2.67; in that of GLQAPRKKAQGKTQQNRKLTDFYP [K2L], 4.09.
